Experiment [1] has as its target T1, pp-p38 (activated, double-phosphorylated p38alpha) (human, UniProt Q16539 1-360, double-phosphorylated on the activation loop (pp-p38; T180/Y182 as named for the anti-pp-p38 antibody; pY182 in Fig. 5b)).
T1 construct: human p38alpha (MAPK14), phosphorylated form; also called pp-p38α; source: E. coli, co-expressed with constitutively active GST-tagged MAP2Ks, purified
Nature of the experiment: in vitro kinase assay fitted with a kinetic model; 5 nM pp-JNK or pp-p38, MBP-ATF2(19-100) substrate 0.5-100 uM, 5 mM ATP, kinase buffer; p-T71 and p-T69/T71 by quantitative dot-blots; binding rates (kon, koff) and reaction rates fitted simultaneously with the BioNetGen model (PyBioNetFit). To be noted: both partners purified.

The target in experiment [2] is T1, pp-p38 (activated, …). Described as above. To be noted: both partners purified. The source holds these as a separate data set.

The record followed here is publication PMC7666158, “Co-regulation of the transcription controlling ATF2 phosphoswitch by JNK and p38” (Nature Communications, 2020).

T1 sequence (Q16539 whole entry): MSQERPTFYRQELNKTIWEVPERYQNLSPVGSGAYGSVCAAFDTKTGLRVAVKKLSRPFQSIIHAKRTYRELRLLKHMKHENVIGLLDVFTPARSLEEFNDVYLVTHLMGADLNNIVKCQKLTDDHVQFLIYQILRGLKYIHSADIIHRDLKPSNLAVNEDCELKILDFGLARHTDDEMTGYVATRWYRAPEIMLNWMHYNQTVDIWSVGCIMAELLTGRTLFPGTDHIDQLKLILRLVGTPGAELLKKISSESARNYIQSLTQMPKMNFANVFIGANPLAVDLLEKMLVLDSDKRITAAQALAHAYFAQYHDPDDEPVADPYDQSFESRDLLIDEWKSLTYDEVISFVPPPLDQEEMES

B1: MBP-ATF2(19-100)-WT (domain or fragment, human, UniProt P15336-1 19-100, looked up)
chain: MSDDKPFLCTAPGCGQRFTNEDHLAVHKHKHEMTLKFGPARNDSVIVADQTPTPTRFLKNCEEVGLFNELASPFENEFKKAS
notes: A TEV site lies between MBP and ATF2; also called MBP-ATF2-His6; ATF2 TAD; source: E. coli BL21(DE3), purified (Ni-NTA, maltose resin); not shown: MBP, N-terminal, kept; His6, C-terminal, kept
In the experiment with pp-p38 (activated, …) [1], B1 came in with a koff of 429 s⁻¹ and a kon of 1.72e+07 M⁻¹ s⁻¹. The dissociation constant (Kd) with pp-p38 (activated, …) [2] is about 25 µM.

By koff is commonly meant the first-order rate constant of dissociation. A high value points to a short-lived complex. The term kon denotes the rate constant with which the complex forms. The low end stands for slower complex formation, the high end for faster complex formation. For orientation: Kd means the equilibrium constant for the complex coming apart. A lower Kd goes with a tighter complex.
